Series [1] deals with HeLa Kyoto. The series is described as follows: solubility in G1/S (NP-40 vs SDS abundance) (log2 ratio); higher = more soluble. Particulars: cell cycle stage: G1/S.
For series [2], the system named is HeLa Kyoto. The series is described as follows: melting temperature (median over replicates), in situ; higher = more thermally stable.
Series [3] has as its system HeLa Kyoto. The series is described as follows: solubility change mitosis vs G1/S (difference of NP-40 vs SDS log2 ratios) (log2 ratio difference); higher = more soluble in mitosis.
For series [4], the system named is HeLa Kyoto. The experiment in a line: thermal stability score vs G1/S (z-score of summed log2 fold changes over temperatures); higher = more thermally stable than in G1/S.
Where [5] appears, read: cell cycle stage: early G1 (4.5 h after nocodazole release).
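For melting temperature (median over replicates), in situ in this document: HeLa Kyoto cells synchronized by double thymidine or nocodazole block, proteins quantified by TMT10plex mass spectrometry, three independent biological replicates.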
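For solubility change mitosis vs G1/S (difference of NP-40 vs SDS log2 ratios) in this document: synchronized HeLa Kyoto cells (double thymidine block for G1/S, nocodazole release for mitosis), protein amounts in NP-40 versus SDS lysates quantified by mass spectrometry, three biological replicates.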
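For solubility in G1/S (NP-40 vs SDS abundance) in this document: HeLa Kyoto cells arrested at G1/S by double thymidine block, proteins quantified by TMT10plex mass spectrometry in mild NP-40 versus SDS extracts, three biological replicates.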
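For thermal stability score vs G1/S (z-score of summed log2 fold changes over temperatures) in this document: synchronized HeLa Kyoto cells, proteins quantified by TMT10plex mass spectrometry, three biological replicates, mitosis taken 0.5 h after nocodazole release, G1/S directly after double thymidine block.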

For the sequence “MKLNVDGLLVYFPYDYIYPEQFSYMRELKRTLDAKGHGVLEMPSGTGKTVSLLALIMAYQRAYPLEVTKLIYCSRTVPEIEKVIEELRKLLNFYEKQEGEKLPFLGLALSSRKNLCIHPEVTPLRFGKDVDGKCHSLTASYVRAQYQHDTSLPHCRFYEEFDAHGREVPLPAGIYNLDDLKALGRRQGWCPYFLARYSILHANVVVYSYHYLLDPKIADLVSKELARKAVVVFDEAHNIDNVCIDSMSVNLTRRTLDRCQGNLETLQKTVLRIKETDEQRLRDEYRRLVEGLREASAARETDAHLANPVLPDEVLQEAVPGSIRTAEHFLGFLRRLLEYVKWRLRVQHVVQESPPAFLSGLAQRVCIQRKPLRFCAERLRSLLHTLEITDLADFSPLTLLANFATLVSTYAKGFTIIIEPFDDRTPTIANPILHFSCMDASLAIKPVFERFQSVIITSGTLSPLDIYPKILDFHPVTMATFTMTLARVCLCPMIIGRGNDQVAISSKFETREDIAVIRNYGNLLLEMSAVVPDGIVAFFTSYQYMESTVASWYEQGILENIQRNKLLFIETQDGAETSVALEKYQEACENGRGAILLSVARGKVSEGIDFVHHYGRAVIMFGVPYVYTQSRILKARLEYLRDQFQIRENDFLTFDAMRHAAQCVGRAIRGKTDYGLMVFADKRFARGDKRGKLPRWIQEHLTDANLNLTVDEGVQVAKYFLRQMAQPFHREDQLGLSLLSLEQLESEETLKRIEQIAQQL [ERCC2]”, the “solubility in G1/S (log2)” value in the series on HeLa Kyoto [1] was -0.193. For the same sequence, the melting temperature amounted to 48.9 °C in the series on HeLa Kyoto [2] (cell cycle stage: G1/S) and 49.1 °C in the series with HeLa Kyoto [2] (cell cycle stage: mitosis). In addition, the “solubility change mitosis (log2)” value with HeLa Kyoto [3] is -0.0825. The thermal stability score was 1 in the series with HeLa Kyoto [4] (setting [5]) and 2.34 in the series on HeLa Kyoto [4] (cell cycle stage: mitosis).

For the sequence “MKLYSLSVLYKGEAKVVLLKAAYDVSSFSFFQRSSVQEFMTFTSQLIVERSSKGTRASVKEQDYLCHVYVRNDSLAGVVIADNEYPSRVAFTLLEKVLDEFSKQVDRIDWPVGSPATIHYPALDGHLSRYQNPREADPMTKVQAELDETKIILHNTMESLLERGEKLDDLVSKSEVLGTQSKAFYKTARKQNSCCAIM [YKT6]”, the “solubility in G1/S (log2)” value with HeLa Kyoto [1] is -0.0827. In addition, the melting temperature in the series with HeLa Kyoto [2] (cell cycle stage: G1/S) stood at 54.5 °C; in the series with HeLa Kyoto [2] (cell cycle stage: mitosis), 54.6 °C. The “solubility change mitosis (log2)” value in the series with HeLa Kyoto [3] was -0.0935. The results for the thermal stability score with HeLa Kyoto [4] (setting [5]) and in the series with HeLa Kyoto [4] (cell cycle stage: mitosis) were 0.334 and -0.9, respectively.

“MKMAAPTANKAASLGCNNKPAFPELDFRSGARVEELNKLIQEFTKHDQREYDDQRALEIHTAKDFIFSMLGMVQKLDQKLPVANEYLLLSGGVREGVVDLDLDELNVYARGTDYDMDFTLLVPALKLHDRNQPVTLDMRHSALCHSWLSLRLFDEGTISKWKDCCTIVDHINGATNYFFSPTKVADWFYDSISIVLSEIQKKPQRGMPKVEKVEKNGTIISIILGVGSSRMLYDIVPVVSFKGWPAVAQSWLMENHFWDGKITEEEVISGFYLVPACSYKGKKDNEWRLSFARSEVQLKKCISSSLMQAYQACKAIIIKLLSRPKAISPYHLRSMMLWACDRLPANYLAQEDYAAHFLLGLIDDLQHCLVNKMCPNYFIPQCNMLEHLSEETVMLHARKLSSVRSDPAEHLRTAIEHVKAANRLTLELQRRGSTTSIPSPQSDGGDPNQPDDRLAKKLQQLVTENPGKSISVFINPDDVTRPHFRIDDKFF [MB21D2]”: the “solubility in G1/S (log2)” value in the series on HeLa Kyoto [1] is 0.0815. The melting temperature in the series with HeLa Kyoto [2] (cell cycle stage: G1/S) was 56.3 °C; with HeLa Kyoto [2] (cell cycle stage: mitosis) it was 56.5 °C. For the same sequence, the “solubility change mitosis (log2)” value in the series with HeLa Kyoto [3] was -0.0032. The thermal stability score was 1.1 in the series with HeLa Kyoto [4] (setting [5]) and -0.608 in the series on HeLa Kyoto [4] (cell cycle stage: mitosis).

For “MKMADAKQKRNEQLKRWIGSETDLEPPVVKRQKTKVKFDDGAVFLAACSSGDTDEVLKLLHRGADINYANVDGLTALHQACIDDNVDMVKFLVENGANINQPDNEGWIPLHAAASCGYLDIAEFLIGQGAHVGAVNSEGDTPLDIAEEEAMEELLQNEVNRQGVDIEAARKEEERIMLRDARQWLNSGHINDVRHAKSGGTALHVAAAKGYTEVLKLLIQAGYDVNIKDYDGWTPLHAAAHWGKEEACRILVDNLCDMEMVNKVGQTAFDVADEDILGYLEELQKKQNLLHSEKRDKKSPLIESTANMDNNQSQKTFKNKETLIIEPEKNASRIESLEQEKVDEEEEGKKDESSCSSEEDEEDDSESEAETDKTKPLASVTNANTSSTQAAPVAVTTPTVSSGQATPTSPIKKFPTTATKISPKEEERKDESPATWRLGLRKTGSYGALAEITASKEGQKEKDTAGVTRSASSPRLSSSLDNKEKEKDSKGTRLAYVAPTIPRRLASTSDIEEKENRDSSSLRTSSSYTRRKWEDDLKKNSSVNEGSTYHKSCSFGRRQDDLISSSVPSTTSTPTVTSAAGLQKSLLSSTSTTTKITTGSSSAGTQSSTSNRLWAEDSTEKEKDSVPTAVTIPVAPTVVNAAASTTTLTTTTAGTVSSTTEVRERRRSYLTPVRDEESESQRKARSRQARQSRRSTQGVTLTDLQEAEKTIGRSRSTRTREQENEEKEKEEKEKQDKEKQEEKKESETSREDEYKQKYSRTYDETYQRYRPVSTSSSTTPSSSLSTMSSSLYASSQLNRPNSLVGITSAYSRGITKENEREGEKREEEKEGEDKSQPKSIRERRRPREKRRSTGVSFWTQDSDENEQEQQSDTEEGSNKKETQTDSISRYETSSTSAGDRYDSLLGRSGSYSYLEERKPYSSRLEKDDSTDFKKLYEQILAENEKLKAQLHDTNMELTDLKLQLEKATQRQERFADRSLLEMEKRERRALERRISEMEEELKMLPDLKADNQRLKDENGALIRVISKLSK [PPP1R12A]”, the “solubility in G1/S (log2)” value with HeLa Kyoto [1] was -0.42. Further, the melting temperature was found to be 50.4 °C in the series with HeLa Kyoto [2] (cell cycle stage: G1/S) and 50.2 °C in the series with HeLa Kyoto [2] (cell cycle stage: mitosis). Besides, the “solubility change mitosis (log2)” value in the series on HeLa Kyoto [3] was found to be 0.0601. The results for the thermal stability score with HeLa Kyoto [4] (setting [5]) and in the series on HeLa Kyoto [4] (cell cycle stage: mitosis) were -1.62 and -0.382, respectively.

Values taken from the supplement of paper PMC5998384.
